Experimental data from the supplement of paper PMC9112550, “Optimization of the antimicrobial peptide Bac7 by deep mutational scanning” (BMC Biology, 2022).
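Further: peptides expressed intracellularly from a pBAD plasmid library in pooled LB shake-flask culture, induced with 0.3% L-arabinose, DNA abundance read by NGS, three biological replicates, DESeq2 with apeglm shrinkage.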

The sequences below were run on Escherichia coli TOP10 (assay: shrunken log2 fold change of peptide-encoding DNA abundance (4.5 h post-induction vs induction); higher = less antimicrobial activity (less host growth inhibition)). Details: time post-induction: 4.5 h; library: site-saturation at positions 5, 18, 19, 20.
With RRIRWRPPRLPRPRPRPVSTPRP the “shrunken log2 fold change” value was 0.138. In the case of RRIRWRPPRLPRPRPRPVVEPRP, the “shrunken log2 fold change” value is reported as 0.0281. In the case of RRIRWRPPRLPRPRPRPVWGPRP, the “shrunken log2 fold change” value is reported as 0.131. For RRIRWRPPRLPRPRPRPVWPPRP, the “shrunken log2 fold change” value was 0.909. In the case of RRIRWRPPRLPRPRPRPVYFPRP, the “shrunken log2 fold change” value is reported as -0.418. In the case of RRIRWRPPRLPRPRPRPWCMPRP, the “shrunken log2 fold change” value is reported as -0.0174. RRIRWRPPRLPRPRPRPWDPPRP was tested, and the “shrunken log2 fold change” value was -0.101. With RRIRWRPPRLPRPRPRPWEAPRP the “shrunken log2 fold change” value was 0.396. RRIRWRPPRLPRPRPRPWEMPRP was tested, and the “shrunken log2 fold change” value was -0.0156. In the case of RRIRWRPPRLPRPRPRPWEWPRP, the “shrunken log2 fold change” value is reported as -0.00895. With RRIRWRPPRLPRPRPRPWHWPRP the “shrunken log2 fold change” value was -0.101. RRIRWRPPRLPRPRPRPWIAPRP was tested, and the “shrunken log2 fold change” value was -0.11. For RRIRWRPPRLPRPRPRPWKIPRP, the “shrunken log2 fold change” value was -0.0733. RRIRWRPPRLPRPRPRPWKPPRP was tested, and the “shrunken log2 fold change” value was -0.732. In the case of RRIRWRPPRLPRPRPRPWKSPRP, the “shrunken log2 fold change” value is reported as 0.0574. RRIRWRPPRLPRPRPRPWLAPRP was tested, and the “shrunken log2 fold change” value was -0.168. With RRIRWRPPRLPRPRPRPWMAPRP the “shrunken log2 fold change” value was 0.0321. For RRIRWRPPRLPRPRPRPWMHPRP, the “shrunken log2 fold change” value was -0.0548. RRIRWRPPRLPRPRPRPWPIPRP was tested, and the “shrunken log2 fold change” value was 0.0793. RRIRWRPPRLPRPRPRPWPNPRP was tested, and the “shrunken log2 fold change” value was 0.0899. For RRIRWRPPRLPRPRPRPWRSPRP, the “shrunken log2 fold change” value was 0.49. In the case of RRIRWRPPRLPRPRPRPWTMPRP, the “shrunken log2 fold change” value is reported as -0.146. For RRIRWRPPRLPRPRPRPWTQPRP, the “shrunken log2 fold change” value was 0.272. With RRIRWRPPRLPRPRPRPWTVPRP the “shrunken log2 fold change” value was -0.0123. For RRIRWRPPRLPRPRPRPWVKPRP, the “shrunken log2 fold change” value was -0.00207. RRIRWRPPRLPRPRPRPWYAPRP was tested, and the “shrunken log2 fold change” value was -0.746. For RRIRWRPPRLPRPRPRPWYLPRP, the “shrunken log2 fold change” value was -0.193. For RRIRWRPPRLPRPRPRPWYVPRP, the “shrunken log2 fold change” value was -0.396. With RRIRWRPPRLPRPRPRPWYYPRP the “shrunken log2 fold change” value was -0.321. For RRIRWRPPRLPRPRPRPYCLPRP, the “shrunken log2 fold change” value was -0.633. For RRIRWRPPRLPRPRPRPYCMPRP, the “shrunken log2 fold change” value was -0.401. With RRIRWRPPRLPRPRPRPYDMPRP the “shrunken log2 fold change” value was 0.0118. In the case of RRIRWRPPRLPRPRPRPYDQPRP, the “shrunken log2 fold change” value is reported as -0.395. For RRIRWRPPRLPRPRPRPYFCPRP, the “shrunken log2 fold change” value was -0.298. For RRIRWRPPRLPRPRPRPYHHPRP, the “shrunken log2 fold change” value was -1.02. RRIRWRPPRLPRPRPRPYKPPRP was tested, and the “shrunken log2 fold change” value was -0.539. With RRIRWRPPRLPRPRPRPYLFPRP the “shrunken log2 fold change” value was -0.31. RRIRWRPPRLPRPRPRPYMHPRP was tested, and the “shrunken log2 fold change” value was -0.48. For RRIRWRPPRLPRPRPRPYMPPRP, the “shrunken log2 fold change” value was -0.695. In the case of RRIRWRPPRLPRPRPRPYNFPRP, the “shrunken log2 fold change” value is reported as -0.58. With RRIRWRPPRLPRPRPRPYPPPRP the “shrunken log2 fold change” value was -0.332. In the case of RRIRWRPPRLPRPRPRPYPQPRP, the “shrunken log2 fold change” value is reported as -0.361. In the case of RRIRWRPPRLPRPRPRPYQEPRP, the “shrunken log2 fold change” value is reported as -0.0609. RRIRWRPPRLPRPRPRPYQRPRP was tested, and the “shrunken log2 fold change” value was -0.85. In the case of RRIRWRPPRLPRPRPRPYRAPRP, the “shrunken log2 fold change” value is reported as -0.399. With RRIRWRPPRLPRPRPRPYSDPRP the “shrunken log2 fold change” value was -0.381. With RRIRWRPPRLPRPRPRPYSGPRP the “shrunken log2 fold change” value was -0.105. With RRIRWRPPRLPRPRPRPYSHPRP the “shrunken log2 fold change” value was -1.09. With RRIRWRPPRLPRPRPRPYSIPRP the “shrunken log2 fold change” value was -0.296. In the case of RRIRWRPPRLPRPRPRPYSMPRP, the “shrunken log2 fold change” value is reported as -0.314. For RRIRWRPPRLPRPRPRPYVHPRP, the “shrunken log2 fold change” value was -1.18. With RRIRWRPPRLPRPRPRPYVKPRP the “shrunken log2 fold change” value was -0.436. RRIRWRPPRLPRPRPRPYVPPRP was tested, and the “shrunken log2 fold change” value was -0.837. RRIRWRPPRLPRPRPRPYVVPRP was tested, and the “shrunken log2 fold change” value was -0.256. For RRIRWRPPRLPRPRPRPYWAPRP, the “shrunken log2 fold change” value was -0.298. For RRIRWRPPRLPRPRPRPYWIPRP, the “shrunken log2 fold change” value was -0.81. For RRIRWRPPRLPRPRPRPYYLPRP, the “shrunken log2 fold change” value was -0.843. With RRIRYRPPRLPRPRPRPAARPRP the “shrunken log2 fold change” value was 0.0304. RRIRYRPPRLPRPRPRPADEPRP was tested, and the “shrunken log2 fold change” value was -0.451. In the case of RRIRYRPPRLPRPRPRPADGPRP, the “shrunken log2 fold change” value is reported as 0.143. For RRIRYRPPRLPRPRPRPADMPRP, the “shrunken log2 fold change” value was -0.382. For RRIRYRPPRLPRPRPRPAEFPRP, the “shrunken log2 fold change” value was -0.266. With RRIRYRPPRLPRPRPRPAFDPRP the “shrunken log2 fold change” value was 0.105. In the case of RRIRYRPPRLPRPRPRPAFGPRP, the “shrunken log2 fold change” value is reported as -0.21. For RRIRYRPPRLPRPRPRPAFWPRP, the “shrunken log2 fold change” value was 0.444. For RRIRYRPPRLPRPRPRPAGPPRP, the “shrunken log2 fold change” value was -0.0366. With RRIRYRPPRLPRPRPRPAHDPRP the “shrunken log2 fold change” value was -1.14. RRIRYRPPRLPRPRPRPAHPPRP was tested, and the “shrunken log2 fold change” value was -0.0595. RRIRYRPPRLPRPRPRPAHSPRP was tested, and the “shrunken log2 fold change” value was -0.0299. With RRIRYRPPRLPRPRPRPAIAPRP the “shrunken log2 fold change” value was 0.0565. With RRIRYRPPRLPRPRPRPALQPRP the “shrunken log2 fold change” value was -0.1. With RRIRYRPPRLPRPRPRPANTPRP the “shrunken log2 fold change” value was -0.589. In the case of RRIRYRPPRLPRPRPRPAQPPRP, the “shrunken log2 fold change” value is reported as -0.0284. With RRIRYRPPRLPRPRPRPARHPRP the “shrunken log2 fold change” value was 0.0712. RRIRYRPPRLPRPRPRPARWPRP was tested, and the “shrunken log2 fold change” value was 0.135. For RRIRYRPPRLPRPRPRPASIPRP, the “shrunken log2 fold change” value was -0.229. RRIRYRPPRLPRPRPRPATDPRP was tested, and the “shrunken log2 fold change” value was -0.327. With RRIRYRPPRLPRPRPRPAWRPRP the “shrunken log2 fold change” value was 0.0762. RRIRYRPPRLPRPRPRPCACPRP was tested, and the “shrunken log2 fold change” value was 0.0891. In the case of RRIRYRPPRLPRPRPRPCCGPRP, the “shrunken log2 fold change” value is reported as -0.33. RRIRYRPPRLPRPRPRPCDIPRP was tested, and the “shrunken log2 fold change” value was -0.334. RRIRYRPPRLPRPRPRPCFSPRP was tested, and the “shrunken log2 fold change” value was -0.594. For RRIRYRPPRLPRPRPRPCILPRP, the “shrunken log2 fold change” value was 0.00867. In the case of RRIRYRPPRLPRPRPRPCKLPRP, the “shrunken log2 fold change” value is reported as -0.698. RRIRYRPPRLPRPRPRPCKNPRP was tested, and the “shrunken log2 fold change” value was -1.05. In the case of RRIRYRPPRLPRPRPRPCLKPRP, the “shrunken log2 fold change” value is reported as -0.0431. For RRIRYRPPRLPRPRPRPCLLPRP, the “shrunken log2 fold change” value was -1.04. With RRIRYRPPRLPRPRPRPCPIPRP the “shrunken log2 fold change” value was 0.0143. For RRIRYRPPRLPRPRPRPCPSPRP, the “shrunken log2 fold change” value was 0.109. With RRIRYRPPRLPRPRPRPCSAPRP the “shrunken log2 fold change” value was -0.212. With RRIRYRPPRLPRPRPRPCSNPRP the “shrunken log2 fold change” value was -0.00822. RRIRYRPPRLPRPRPRPCSPPRP was tested, and the “shrunken log2 fold change” value was -0.0146. For RRIRYRPPRLPRPRPRPCSWPRP, the “shrunken log2 fold change” value was -0.272. In the case of RRIRYRPPRLPRPRPRPCTTPRP, the “shrunken log2 fold change” value is reported as -0.256. For RRIRYRPPRLPRPRPRPCVAPRP, the “shrunken log2 fold change” value was -0.11. For RRIRYRPPRLPRPRPRPCVRPRP, the “shrunken log2 fold change” value was 0.0523. With RRIRYRPPRLPRPRPRPCVTPRP the “shrunken log2 fold change” value was -0.000683. For RRIRYRPPRLPRPRPRPCVYPRP, the “shrunken log2 fold change” value was -0.197. RRIRYRPPRLPRPRPRPCWSPRP was tested, and the “shrunken log2 fold change” value was -0.768. With RRIRYRPPRLPRPRPRPDCMPRP the “shrunken log2 fold change” value was 0.0186. In the case of RRIRYRPPRLPRPRPRPDDEPRP, the “shrunken log2 fold change” value is reported as 0.00902. With RRIRYRPPRLPRPRPRPDEVPRP the “shrunken log2 fold change” value was 0.000691. In the case of RRIRYRPPRLPRPRPRPDEYPRP, the “shrunken log2 fold change” value is reported as -0.0128. In the case of RRIRYRPPRLPRPRPRPDFHPRP, the “shrunken log2 fold change” value is reported as -0.695. In the case of RRIRYRPPRLPRPRPRPDGLPRP, the “shrunken log2 fold change” value is reported as -0.528. RRIRYRPPRLPRPRPRPDHRPRP was tested, and the “shrunken log2 fold change” value was -0.227. RRIRYRPPRLPRPRPRPDHYPRP was tested, and the “shrunken log2 fold change” value was -0.0219. RRIRYRPPRLPRPRPRPDIRPRP was tested, and the “shrunken log2 fold change” value was -0.00867. RRIRYRPPRLPRPRPRPDMAPRP was tested, and the “shrunken log2 fold change” value was -0.255.
